T1: AP2-LT D1 (Plasmodium falciparum, UniProt Q8IAM1 2520-2577)
T1 sequence: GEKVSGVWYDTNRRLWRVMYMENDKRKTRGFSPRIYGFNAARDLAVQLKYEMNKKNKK


Molecular target: T1, AP2-LT D1
Assay: gcPBM; about 25 ug protein; PBS, 1% milk, 0.2 mg/ml BSA, salmon testes DNA, 0.03% Triton X-100
Settings: tags: N-terminal GST (pGEX-4T-1), kept; label: surface-attached array probe

Binder	binding signal
CACACA_site8248 (dsDNA) DNA 1: TGAACTCACGAGCACACACACACATATATATATATA DNA 2: TATATATATATATGTGTGTGTGTGCTCGTGAGTTCA	10.5 ln median PBM intensity, better of two orientations
CACACA_site8001 (dsDNA) DNA 1: TGGGAGCACAGACACACACACACACCGATATATATA DNA 2: TATATATATCGGTGTGTGTGTGTGTCTGTGCTCCCA	10.6 ln median PBM intensity, better of two orientations
CACACA_site3589 (dsDNA) DNA 1: AATAAAAAGAAACACACACACACACCCATATATATA DNA 2: TATATATATGGGTGTGTGTGTGTGTTTCTTTTTATT	10.7 ln median PBM intensity, better of two orientations
CACACA_site2267 (dsDNA) DNA 1: AATATAAATAAAAACACACACACACCCATATATATA DNA 2: TATATATATGGGTGTGTGTGTGTTTTTATTTATATT	10.6 ln median PBM intensity, better of two orientations
CACACA_site905 (dsDNA) DNA 1: AAAAAGGAGAAACACACACACACACCCATATATATA DNA 2: TATATATATGGGTGTGTGTGTGTGTTTCTCCTTTTT	10.2 ln median PBM intensity, better of two orientations
CACACA_site7106 (dsDNA) DNA 1: AAAAAACACGCGCACACACACACACGCGCCCACATA DNA 2: TATGTGGGCGCGTGTGTGTGTGTGCGCGTGTTTTTT	10.5 ln median PBM intensity, better of two orientations
CACACA_site4314 (dsDNA) DNA 1: AATAAATAAAGAAGTACACACATATATATATATATA DNA 2: TATATATATATATATGTGTGTACTTCTTTATTTATT	10.3 ln median PBM intensity, better of two orientations
CACACA_site268 (dsDNA) DNA 1: AATATAAACCCAAACACACACATATATATATATATA DNA 2: TATATATATATATATGTGTGTGTTTGGGTTTATATT	10.3 ln median PBM intensity, better of two orientations
CACACA_site5031 (dsDNA) DNA 1: AGTATACTCGGACACACACACACATATATATATATA DNA 2: TATATATATATATGTGTGTGTGTGTCCGAGTATACT	10.6 ln median PBM intensity, better of two orientations
CACACA_site1992 (dsDNA) DNA 1: TGGGTAAACAAACACACACACATATATATATATATA DNA 2: TATATATATATATATGTGTGTGTGTTTGTTTACCCA	10.5 ln median PBM intensity, better of two orientations
CACACA_site5977 (dsDNA) DNA 1: AATGACAACCTTGTCACACATATATATATATATATA DNA 2: TATATATATATATATATGTGTGACAAGGTTGTCATT	10.2 ln median PBM intensity, better of two orientations
CACACA_site6473 (dsDNA) DNA 1: AAAAAAAAAAGACACACACACACACTAATACATACA DNA 2: TGTATGTATTAGTGTGTGTGTGTGTCTTTTTTTTTT	10.6 ln median PBM intensity, better of two orientations
CACACA_site4354 (dsDNA) DNA 1: CACAGACACGGACACACACACACACCCATATATATA DNA 2: TATATATATGGGTGTGTGTGTGTGTCCGTGTCTGTG	10.3 ln median PBM intensity, better of two orientations
CACACA_site9270 (dsDNA) DNA 1: AAAAAAAAAAAATATACACACACACCGACACATAAA DNA 2: TTTATGTGTCGGTGTGTGTGTATATTTTTTTTTTTT	10.2 ln median PBM intensity, better of two orientations
CACACA_site5873 (dsDNA) DNA 1: AATAACCACGGACACACACACATATATATATATATA DNA 2: TATATATATATATATGTGTGTGTGTCCGTGGTTATT	10.5 ln median PBM intensity, better of two orientations
CACACA_site5809 (dsDNA) DNA 1: AACACCCATGGACACACACACATATATATATATATA DNA 2: TATATATATATATATGTGTGTGTGTCCATGGGTGTT	10.5 ln median PBM intensity, better of two orientations
CACACA_site499 (dsDNA) DNA 1: CACCCACCCAGACACACACACACAAAAAAAAAAAGA DNA 2: TCTTTTTTTTTTTGTGTGTGTGTGTCTGGGTGGGTG	10.6 ln median PBM intensity, better of two orientations
CACACA_site2920 (dsDNA) DNA 1: CATACATACAGACACACACACATATATATATATATA DNA 2: TATATATATATATATGTGTGTGTGTCTGTATGTATG	10.4 ln median PBM intensity, better of two orientations
CACACA_site773 (dsDNA) DNA 1: TATATATAGAAACACACACACATATATATATATATA DNA 2: TATATATATATATATGTGTGTGTGTTTCTATATATA	10.3 ln median PBM intensity, better of two orientations
CACACA_site2248 (dsDNA) DNA 1: TATACATAGAAACACACACACATATATATATATATA DNA 2: TATATATATATATATGTGTGTGTGTTTCTATGTATA	10.2 ln median PBM intensity, better of two orientations
CACACA_site7866 (dsDNA) DNA 1: GGATATAACAGACACACACACACATATAAATATATT DNA 2: AATATATTTATATGTGTGTGTGTGTCTGTTATATCC	10.4 ln median PBM intensity, better of two orientations
CACACA_site5250 (dsDNA) DNA 1: CGCGCCCAGAAACACACACACACACCGATATATATA DNA 2: TATATATATCGGTGTGTGTGTGTGTTTCTGGGCGCG	10.2 ln median PBM intensity, better of two orientations

Binder	binding signal
CACACA_site8234 (dsDNA) DNA 1: CTATTTCATAAACACACACACACAAACAAACATATA DNA 2: TATATGTTTGTTTGTGTGTGTGTGTTTATGAAATAG	10.2 ln median PBM intensity, better of two orientations
CACACA_site706 (dsDNA) DNA 1: AAAAAAAAAAAACACACACACACAAATACATACACA DNA 2: TGTGTATGTATTTGTGTGTGTGTGTTTTTTTTTTTT	10.4 ln median PBM intensity, better of two orientations
CACACA_site8035 (dsDNA) DNA 1: TAAGTATACACATACACACACACACTAATAAAAAAA DNA 2: TTTTTTTATTAGTGTGTGTGTGTATGTGTATACTTA	10.2 ln median PBM intensity, better of two orientations
CACACA_site6255 (dsDNA) DNA 1: TTTATTAATAGACACACACACACACGCAAAATAAAA DNA 2: TTTTATTTTGCGTGTGTGTGTGTGTCTATTAATAAA	10.4 ln median PBM intensity, better of two orientations
CACACA_site1020 (dsDNA) DNA 1: AACAGACGAAGACACACACACATATATATATATATA DNA 2: TATATATATATATATGTGTGTGTGTCTTCGTCTGTT	10.4 ln median PBM intensity, better of two orientations
CACACA_site481 (dsDNA) DNA 1: ATAATCCTGAAACACACACACACACCCATAAATAAA DNA 2: TTTATTTATGGGTGTGTGTGTGTGTTTCAGGATTAT	10.4 ln median PBM intensity, better of two orientations
CACACA_site6447 (dsDNA) DNA 1: AATACACGCAGACACACACACACACGCACATATATA DNA 2: TATATATGTGCGTGTGTGTGTGTGTCTGCGTGTATT	10.3 ln median PBM intensity, better of two orientations
CACACA_site6448 (dsDNA) DNA 1: AAAATACACGCATACACACACACACGCGCACATATA DNA 2: TATATGTGCGCGTGTGTGTGTGTATGCGTGTATTTT	10.2 ln median PBM intensity, better of two orientations
CACACA_site8452 (dsDNA) DNA 1: AAAAAAAAAAAACATACACACACATATATATATATA DNA 2: TATATATATATATGTGTGTGTATGTTTTTTTTTTTT	10.3 ln median PBM intensity, better of two orientations
CACACA_site4493 (dsDNA) DNA 1: GGCATACACGGACACACACACACACCGACATATATA DNA 2: TATATATGTCGGTGTGTGTGTGTGTCCGTGTATGCC	10.6 ln median PBM intensity, better of two orientations
CACACA_site4674 (dsDNA) DNA 1: CATATAAAAGGACACACACACACATATATATATATA DNA 2: TATATATATATATGTGTGTGTGTGTCCTTTTATATG	10.6 ln median PBM intensity, better of two orientations
CACACA_site4437 (dsDNA) DNA 1: CATATACACGAACACACACACATATATATATATATA DNA 2: TATATATATATATATGTGTGTGTGTTCGTGTATATG	10.4 ln median PBM intensity, better of two orientations
CACACA_site4352 (dsDNA) DNA 1: CCCACAGACGGACACACACACACATATATATATATA DNA 2: TATATATATATATGTGTGTGTGTGTCCGTCTGTGGG	10.6 ln median PBM intensity, better of two orientations
CACACA_site4351 (dsDNA) DNA 1: CCCACAGACGGACACACACACATATATATATATATA DNA 2: TATATATATATATATGTGTGTGTGTCCGTCTGTGGG	10.2 ln median PBM intensity, better of two orientations
CACACA_site363 (dsDNA) DNA 1: CACACCCACAGACACACACACACATATATATATATA DNA 2: TATATATATATATGTGTGTGTGTGTCTGTGGGTGTG	10.3 ln median PBM intensity, better of two orientations
CACACA_site8097 (dsDNA) DNA 1: CATACACCCCAACACACACACACACCCATATATAAT DNA 2: ATTATATATGGGTGTGTGTGTGTGTTGGGGTGTATG	10.6 ln median PBM intensity, better of two orientations
CACACA_site517 (dsDNA) DNA 1: AATTAACAAAAACACACACACACACCCACAAAAAAA DNA 2: TTTTTTTGTGGGTGTGTGTGTGTGTTTTTGTTAATT	10.3 ln median PBM intensity, better of two orientations
CACACA_site9255 (dsDNA) DNA 1: AAAGAAGGTAAACACACACACACACCGACAAAAAAA DNA 2: TTTTTTTGTCGGTGTGTGTGTGTGTTTACCTTCTTT	10.6 ln median PBM intensity, better of two orientations
CACACA_site453 (dsDNA) DNA 1: CAAAGACACAAACACACACACACATACATACATACA DNA 2: TGTATGTATGTATGTGTGTGTGTGTTTGTGTCTTTG	10.6 ln median PBM intensity, better of two orientations
CACACA_site2666 (dsDNA) DNA 1: AAAAAACACAGACACACACACATATACATACATACA DNA 2: TGTATGTATGTATATGTGTGTGTGTCTGTGTTTTTT	10.6 ln median PBM intensity, better of two orientations
CACACA_site5033 (dsDNA) DNA 1: TCATAGTATGGACACACACACACACCCATATATATA DNA 2: TATATATATGGGTGTGTGTGTGTGTCCATACTATGA	10.2 ln median PBM intensity, better of two orientations
CACACA_site493 (dsDNA) DNA 1: AACATACAGAAACACACACACACACCCACACCCACA DNA 2: TGTGGGTGTGGGTGTGTGTGTGTGTTTCTGTATGTT	10.6 ln median PBM intensity, better of two orientations

— publication PMC11417369, “DNA sequence and chromatin differentiate sequence-specific transcription factor binding in the human malaria parasite Plasmodium falciparum”
